Reference: patent US20230235080A1, “TROPHOBLAST CELL-SURFACE ANTIGEN-2 (TROP-2) ANTIBODIES” (Bionecure Therapeutics, Inc., priority 2020, published 2023)
Numbering of substitutions follows the chain as printed. Like-named read-outs stand apart in the source and are kept apart here.

T1: human Trop-2 on Trop-2 positive cancer cells (human, UniProt P09758 27-323)
T1 sequence (looked up): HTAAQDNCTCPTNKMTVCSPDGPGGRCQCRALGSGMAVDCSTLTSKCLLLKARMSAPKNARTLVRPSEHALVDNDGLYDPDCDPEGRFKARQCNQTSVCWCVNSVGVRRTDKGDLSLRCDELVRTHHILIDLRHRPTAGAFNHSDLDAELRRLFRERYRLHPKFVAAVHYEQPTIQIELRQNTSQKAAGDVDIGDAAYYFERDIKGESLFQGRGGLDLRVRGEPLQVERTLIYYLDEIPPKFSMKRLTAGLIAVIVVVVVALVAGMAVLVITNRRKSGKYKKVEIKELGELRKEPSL

T2: human Trop-2-ECD-6His fusion protein (Homo sapiens, UniProt P09758)
T2 construct: made in house; host or cells: human 293 cell line
T2 sequence (P09758 with tags, fused parts or gaps): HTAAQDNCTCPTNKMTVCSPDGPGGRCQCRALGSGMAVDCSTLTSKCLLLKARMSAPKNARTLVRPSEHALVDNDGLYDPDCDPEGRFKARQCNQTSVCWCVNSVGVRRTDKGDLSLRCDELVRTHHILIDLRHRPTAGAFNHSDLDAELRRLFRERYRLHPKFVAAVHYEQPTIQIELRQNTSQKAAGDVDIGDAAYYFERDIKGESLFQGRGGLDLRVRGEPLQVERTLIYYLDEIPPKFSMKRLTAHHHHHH

T3: human Trop-2-ECD-6His fusion protein (human, UniProt P09758 27-274)
T3 construct: Expressed in a human 293 cell line; also called huTrop-2; human Trop-2 antigen
T3 sequence: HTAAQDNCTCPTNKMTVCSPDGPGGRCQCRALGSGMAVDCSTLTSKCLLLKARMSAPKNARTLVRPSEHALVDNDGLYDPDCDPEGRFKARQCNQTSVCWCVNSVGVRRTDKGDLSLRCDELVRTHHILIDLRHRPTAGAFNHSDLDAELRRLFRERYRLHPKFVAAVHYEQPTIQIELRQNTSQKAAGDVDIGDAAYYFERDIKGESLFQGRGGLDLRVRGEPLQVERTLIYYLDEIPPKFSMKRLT

B1: A1X4-MMAE antibody-drug conjugate (antibody, V domains shown)
VH: QVQLQESGPGLVKPSETLSLTCTVSGFSLTSYGVNWIRQPPGKGLEWIGVMWAGGSTNYNSALMSRVTISVDTSKNQFSLKLSSVTAADTAVYYCARDENWDGAWFAYWGQGTLVTVSS
VL: DIVMTQSPDSLAVSLGERATINCKSSQSLLNSGTRKNYLAWYQQKPGQPPKLLISWASSRESGVPDRFSGSGSGTDFTLTISSLQAEDVAVYYCKQSYNLFTFGGGTKVEIKR
modifications: mc-vc-PABA-MMAE on the reduced antibody; chain and positions not stated
B2: A1,2X4-MMAE antibody-drug conjugate (antibody, V domains shown)
VH: B1 VH with V67L, V71K
VL: B1 VL
modifications: mc-vc-PABA-MMAE on the reduced antibody; chain and positions not stated
B3: HuA/Lu(X3): humanized #118-2-5, heavy chain HuA (SEQ ID NO: 23) with light chain Lu(X3) (SEQ ID NO: 36) (antibody, V domains shown)
VH: B1 VH
VL: DIVMTQSHKFISTSVGDRVSITCKASQDVDTAVAWYQQKPGQSPKLLIHWASTRHTGVPDRFTGGGSGTDFTLTLSNVQSEDLADYFCQQYSTFPWTFGGGTRLEIK
B4: Hu(A1)/LuX: humanized #118-2-5, heavy chain Hu(A1) (SEQ ID NO: 29) with light chain LuX (SEQ ID NO: 27) (antibody, V domains shown)
VH: B1 VH
VL: DIVMTQSPDSLAVSLGERATINCKSSQSLLNSGTRKNYLAWYQQKPGQPPKLLIYWASSRESGVPDRFSGSGSGTDFTLTISSLQAEDVAVYYCKQSYNLFTFGGGTKVEIK
B5: benchmark antibody hRS7 (antibody, V domains shown)
VH: QVQLQQSGSELKKPGASVKVSCKASGYTFTNYGMNWVKQAPGQGLKWMGWINTYTGEPTYTDDFKGRFAFSLDTSVSTAYLQISSLKADDTAVYFCARGGFGSSYWYFDVWGQGSLVTVSS
VL: DIQLTQSPSSLSASVGDRVSITCKASQDVSIAVAWYQQKPGKAPKLLIYSASYRYTGVPDRFSGSGSGTDFTLTISSLQPEDFAVYYCQQHYITPLTFGAGTKVDIK
B6: #125-1-5 mouse H14-4/L3-4: parental mouse #125-1-5 heavy/light chains H14-4/L3-4, comparator of the humanized IgGs (antibody, V domains shown)
VH: QIQLVQSGPELVKPGASVKMSCKASGYTFTTYVIHWVKQKPGQGLEWIGYINPNNDGTKYNEKFKGKATLISDKSSTTAYMEVRGLTSEDSAVYYCARPHFETHAMDYWGQGTSVTVSS
VL: DIQMTQSPSSFSVSLGDSVTITCKASEDIFNRLAWYQQKPGNAPRLLISGATSLETGVPSRFSGGGSGKEYTLSITSLQNEDVATYYCQQYWNTWTFGGGTKLEIK
B7: humanized IgG #125-1-5 Hu3/Lu5 (antibody, V domains shown)
VH: QVQLVQSGAEVKKPGASVKVSCKASGYTFTTYVIHWVRQAPGQRLEWMGYINPNNDGTKYNEKFKGKATLTSDKSSTTAYMEVRGLTSEDSAVYYCARPHFETHAMDYWGQGTLVTVSS
VL: DIQMTQSPSSLSASVGDRVTITCKASEDIFNRLAWYQQKPGKAPKLLLYGATSLETGVPSRFSGSGSGTDYTLTISSLQPEDFATYYCQQYWNTWTFGQGTKVEIKR
notes: also called IgG Hu3/Lu5
B8: humanized #125-1-5 Hu1/Lu5 (antibody, V domains shown)
VH: QVQLVQSGAEVKKPGASVKVSCKASGYTFTTYVIHWVRQAPGQRLEWMGYINPNNDGTKYNEKFKGRVTITRDTSASTAYMELSSLRSEDTAVYYCARPHFETHAMDYWGQGTLVTVSS
VL: DIQMTQSPSSLSASVGDRVTITCKASEDIFNRLAWYQQKPGKAPKLLLYGATSLETGVPSRFSGSGSGTDYTLTISSLQPEDFATYYCQQYWNTWTFGQGTKVEIK
B9: humanized #125-1-5 Hu4/Lu5 (antibody, V domains shown)
VH: B8 VH with V20M, M48I, V68A, I70L, R72S, T74K
VL: B8 VL
notes: Humanized antibody
B10: humanized #125-1-5 Hu4/Lu6 (antibody, V domains shown)
VH: B8 VH with V20M, M48I, V68A, I70L, R72S, T74K
VL: B8 VL with L48I, Y49S, T69K
notes: Humanized antibody
B11: humanized #125-1-5 Hu3/Lu6 (antibody, V domains shown)
VH: B7 VH
VL: B8 VL with L48I, Y49S, T69K
notes: Humanized antibody
B12: humanized #125-1-5 Hu2/Lu6 (antibody, V domains shown)
VH: B8 VH with R38K, A40K, R44G, M48I
VL: B8 VL with L48I, Y49S, T69K
notes: Humanized antibody

What was measured:
[1] = molecular target: T1, human Trop-2 on Trop-2 positive cancer …; assay: cell-based or functional assay
[2] = molecular target: T2, human Trop-2-ECD-6His fusion protein; assay: Antigen binding assay (ELISA) on immobilized Trop-2-ECD-6His
[3] = test system: Trop-2 positive breast cancer cell line MDA-MB-468; assay: Internalization assay by flow cytometry (Example 2 protocol); assay type: cell-based, human; conditions: Table 9; second round of humanization of #118-2-5
Experimental: The chimeric IgG1 #118-2-5 and #125-1-5 were further evaluated by internalization assay using Trop-2 positive breast cancer cell line MDA-MB-468. MDA-MB-468 cells were seeded at 1×10^5 cell/well. Next, the chimeric or benchmark IgGs were added to cells in FACS buffer and incubated for 2 hours at 4° C. After incubation, the cells were washed to remove unbound antibody. The cells were then incubated at 37° C. After 2 hours, the cells were dissociated and stained with fluorescent-conjugated […] secondary antibodies for 30 minutes on ice in dark before being analyzed using Beckman flow cytometry system. The fluorescent intensity and cell binding percentage at each time point were analyzed by Beckman flow cytometric software. The amount of chimeric IgGs internalized into cells was determined using the following formula: % internalization rate = 100 × (MFI4°C - MFI37°C) / MFI4°C.

[4] = molecular target: T3, human Trop-2-ECD-6His fusion protein; assay: BLI (Octet), antibody at 8 ug/ml, human Trop-2ECD-6His at 3.125-50 nM
Experimental: The binding affinity of the purified anti-Trop-2 IgGs to human Trop-2 protein were determined by Octet system based on Bio-Layer Interferometry (BLI) technique. BLI is a layer of molecules attached to the tip of an optic fiber which creates an interference pattern at the detector, any change in the number of molecules bound causes a measured shift in the pattern. Octet system enables real-time analysis for determination of affinity and kinetics from biomolecular interactions in 96-well microplates. […] A1X4 or A1,2X4 antibody was diluted and added to the assigned wells at a final concentration 8 µg/ml. The plate was put in the Octet system and assay was started. The data was analyzed using the Octet Data Acquisition Software (fortebio data analysis 10.0) to calculate an association rate constant Kon, a dissociation rate constant Koff, and a dissociation constant Kd (Kd = Koff/Kon).

[5] = molecular target: T3, human Trop-2-ECD-6His fusion protein; assay: antigen binding ELISA on immobilized human Trop-2-ECD-6His
[6] = molecular target: T1, human Trop-2 on Trop-2 positive cancer …; assay: flow cytometry on MDA-MB-468 cells, MFI at 4 °C against the antibody concentration (about 400 to 10000 ng/ml); Kd (µg/ml) printed beside the legend
Experimental: Internalizationi and degradation of anti-Trop-2 antibodies was measured by flow cytometry. In this study, fluorescent-conjugated secondary antibodies were used to detect the primary antibodies left on after internalization.
Next, either hRS7, or A1X4, or A1,2X4 antibody was added to cells in FACS buffer at concentrations of 400, 1000, 3000, or 10000 ng/ml, respectively, and incubated for 30 minutes at 4° C. After incubation, the cells were washed three times with FACS buffer to removed unbound antibody. The cells were then incubated at 37° C. with 5% CO₂ for antibody internalization. After 2 hours, the cells were dissociated with Trypsin and stained with fluorescent-conjugated goat anti-human IgG secondary antibodies for 30 minutes on ice in dark before being analyzed using Beckman flow cytometry system. The fluorescent intensity and cell binding percentage at each time point were analyzed by Beckman flow cytometric software. The amount of anti-Trop-2 antibodies internalized into cells at each concentration was determined using the following formula: % internalization rate = 100 × (MFI₄°C- MFI₃₇°C) / MFI₄°C

[7] = molecular target: T1, human Trop-2 on Trop-2 positive cancer …; assay: cell-based or functional assay; remark: listed apart in the source
[8] = molecular target: T1, human Trop-2 on Trop-2 positive cancer …; assay: cell-based or functional assay; remark: listed apart in the source
[9] = molecular target: T3, human Trop-2-ECD-6His fusion protein; assay: antigen binding ELISA on immobilized human Trop-2-ECD-6His; remark: listed apart in the source
[10] = Table 10, humanized #125-1-5 antibodies

Row | Molecule | EC50 [5] [nM] | Internalization rate (flow cytometry, MDA-MB-468 cells) [7] [%] | also measured
1 | B1 |  |  | in vitro cytotoxicity IC50, Trop-2-high BxPC-3 cells [1]: < 1 nM
2 | B2 |  |  | in vitro cytotoxicity IC50, all cells that express different levels of Trop-2 [1]: < 1 nM
3 | B3 |  |  | EC50 ([2]; Table 8, second round of humanization of #118-2-5): 0.45 nM; Internalization rate [3]: 13.22%
4 | B4 |  |  | Internalization rate [3]: 56.01%
5 | B5 | 0.062 | 23.9 | Kd [4]: 0.78 nM; koff [4]: 0.000244 s⁻¹; Kd [6]: 0.78 µg/mL; Internalization rate (flow cytometry, MDA-MB-468 cells) [8]: 10.9%; EC50 [9]: 0.09 nM
6 | B6 |  |  | EC50 [2, 10]: 0.004 nM
7 | B7 | 0.012 | 14 | 
8 | B8 |  | 49.7 | EC50 [2, 10]: 0.016 nM
9 | B9 | 0.019 | 24.9 | 
10 | B10 | 0.022 | 10.3 | 
11 | B11 | 0.045 | 7.5 | 
12 | B12 | 0.018 | 14.1 | 
